From US20060239990A1, “Protein Arginine N-Methyltransferase 2 (PRMT-2)” (priority 2003, published 2006)

How the values were obtained:
MHC Class I = assay: Flow cytometry of endogenous MHC Class I in 293T cells; format: cell-based, human; conditions: 48 hrs after transfection
Procedure: 293 cells were transfected with 1 μg of the indicated reporter plasmids and 5 μg of either PRMT2-A or pVR1012 plasmids. Cells were harvested 36 hours post-transfection, and CAT assays were performed. Data shown are the mean (±SEM)-fold inhibition, in the presence of PRMT2-A, over a vector control of 3 independent experiments. […] 293T human embryonic kidney cells were transfected with HIV-luciferase reporter (WT) or ΔκB-luciferase reporter (ΔκB) and PRMT2 or control vector plasmid. 24 hrs after transfection, cells were treated with vehicle (left panel) or with TNF-α (20 ng/ml; middle panel) or PMA (10 ng/ml; right panel) as indicated, and luciferase activity was measured 48 hrs post transfection. […] 293T cells were transfected with HA-PRMT2 or HA-PRMT2-N. Transfected cells were detached after 48 hrs and analyzed by flow cytometry for MHC Class I and CD9 in HA-positive cells in PRMT2 (FIG. 2C) or PRMT2-N (FIG. 2D) transfected cells. […] 293T cells were transfected with plasmids as indicated where IKK2 or p65 was added as shown, and the κB luciferase reporter gene was used to monitor NF-κB activity 48 hrs after transfection. Values are expressed as fold stimulation compared to the control vector.

IκB-α = assay: Co-immunoprecipitation with endogenous IκB-α in 293 cells; format: binding, human; conditions: HA-tagged constructs in 293 cells
Chain of IκB-α (P25963 whole entry, the tested form may be a part): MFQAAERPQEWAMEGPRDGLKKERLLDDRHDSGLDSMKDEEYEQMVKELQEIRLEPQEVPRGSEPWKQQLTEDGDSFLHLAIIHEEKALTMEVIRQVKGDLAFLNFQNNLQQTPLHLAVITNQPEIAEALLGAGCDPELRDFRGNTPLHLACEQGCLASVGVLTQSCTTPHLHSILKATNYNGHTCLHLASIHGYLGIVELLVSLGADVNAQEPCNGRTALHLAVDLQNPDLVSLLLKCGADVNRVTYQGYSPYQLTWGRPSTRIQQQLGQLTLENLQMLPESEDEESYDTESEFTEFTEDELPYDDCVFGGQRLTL
Description: A polyclonal antibody to recombinant PRMT2 was used to examine the association between endogenous PRMT2 and IκB-α in vivo. […] The domain of IκB-α required for association with PRMT2 was mapped using in vivo immunoprecipitation assays where HA-tagged PRMT2 was coexpressed with truncation mutants of His-tagged IκB-α (FIG. 5B) in 293 cells. The ankyrin domain was both necessary and sufficient for this association (FIG. 5D, lanes 1 and 2). The domain of PRMT2 that interacted with endogenous IκB-α was mapped by immunoprecipitation following expression HA-tagged PRMT2 truncation mutants (FIG. 5C). […] When the ratios of PRMT2 or PRMT2-A binding to IκB-α were compared, both interacted with IκB-α with similar affinity.

NF-κB = NF-κB luciferase reporter assay in 293T cells; format: cell-based, human
Procedure: Cell culture, transfection, and reporter gene assays. The E1A-transformed, human kidney cell line, 293, and NIH-3T3 cells were maintained in Dulbecco's Modified Eagle Medium (DMEM) supplemented with 10% fetal calf serum and penicillin-streptomycin at 37° C. in 5% carbon dioxide in tissue culture grade Petri dishes. PRMT-2−/− mouse embryo fibroblasts (MEFs) and wild type MEFs were prepared from day 13.5 embryos and maintained in DMEM supplemented with 10% fetal calf serum. MEFs at passage 4 were used in this experiment. Lipofectamine Plus™ reagent (Boehringer Mannheim) was used to transfect both 293 and NIH-3T3 cells according to directions from the manufacturer. […] TNF-α stimulation of cells was done using recombinant TNF-α (200 U/ml) for 12 hours. […] CAT assays were performed essentially as described in Leung, K. & Nabel, G. J. Nature 333, 776-778 (1988). To analyze the κB-reporter activity in MEFs, cells were transfected with the reporter (2×kB-Luc) and PRL-TK vector (Promega) using FuGENE6 transfection reagent (Roche). Luciferase activity was analyzed by Dual-Luciferase Reporter Assay System (Promega).
To map the domains responsible for inhibition of HIV transcription, truncation and point mutations were made in PRMT2 (FIG. 1D) and co-transfected with an NF-κB reporter in 293T cells. PRMT2-A represents an alternatively spliced form of PRMT2 found in the expressed sequence tag (EST) database. This isoform contains the first 218 amino acids of PRMT2 and differs from full length PRMT2 by the absence of the less conserved COOH-terminal domain. PRMT2-N was generated by introducing a stop codon after amino acid 95 before the putative Ado-Met domain of PRMT2. To analyze the role of the Ado-Met domain further, another mutant, PRMT2-4A, was prepared in which 141ILDV144 (SEQ ID NO:5) in this region were altered to four consecutive alanines to compare the effects of point mutations in this highly conserved region.
The mechanism and site of action of PRMT2 in the NF-κB signaling pathway was further defined by co-transfection of PRMT2 and its mutants with different regulators in this pathway with an NF-κB reporter in 293T cells (FIG. 2D).

B1: PRMT2: human PRMT-2 polypeptide, SEQ ID NO:2, expressed from pVR1012 vector with HA-tag (protein, listed as Homo sapiens)
chain: MATSGDCPRSESQGEEPAECSEAGLLQEGVQPEEFVAIADYAATDETQLSFLRGEKILILRQTTADWWWGERAGCCGYIPANHVGKHVDEYDPEDTWQDEEYFGSYGTLKLHLEMLADQPRTTKYHSVILQNKESLTDKVILDVGCGTGIISLFCAHYARPRAVYAVEASEMAQHTGQLVLQNGFADIITVYQQKVEDVVLPEKVDVLVSEWMGTCLLFEFMIESILYARDAWLKEDGVIWPTMAALHLVPCSADKDYRSKVLFWDNAYEFNLSALKSLAVKEFFSKPKYNHILKPEDCLSEPCTILQLDMRTVQISDLETLRGELRFDIRKAGTLHGFTAWFSVHFQSLQEGQPPQVLSTGPFHPTTHWKQTLFMMDDPVPVHTGDVVTGSVVLQRNPVWRRHMSVALSWAVTSRQDPTSQKVGEKVFPIWR
modifications: HA tag
In the case of B1, the “endogenous MHC Class I cell surface expression” value (MHC Class I) is reported as “decreased endogenous MHC Class I cell surface expression”, the “association with endogenous IκB-α” value (IκB-α) is reported as “interacted” and the NF-κB activity (NF-κB; 1 μg expression construct, 100 ng 5 κB luciferase reporter) is reported as “inhibited NF-κB activity”. For the same molecule, the “IKK2- and p65-induced NF-κB activity” value (NF-κB; κB luciferase reporter, 48 hrs) was “inhibited both IKK2- and p65-induced NF-κB activity”.
